One experiment deals with T1, Goat anti-Human Kappa.
T1 construct: Positive control; also called biotinylated goat anti-human kappa light chain
As to the kind of experiment: ELISA; positive control. How it is done:
(§1) The binding of ACVR2A-specific monoclonal antibodies to human ACVR2A, mouse ACVR2A, biotinylated goat anti-human kappa light chain (positive control) and human Fc (negative control) were determined by ELISA.

The target of a further experiment is Mouse ACVR2A (mouse, UniProt P27038 20-135, limits assumed). As to the kind of experiment: ELISA. Here is the method: as §1
Sequence of Mouse ACVR2A (P27038 20-135 limits assumed): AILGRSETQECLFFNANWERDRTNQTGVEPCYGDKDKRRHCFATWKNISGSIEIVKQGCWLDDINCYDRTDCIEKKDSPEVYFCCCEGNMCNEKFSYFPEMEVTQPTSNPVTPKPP
Background: An ELISA detects its analyte on a solid surface through an enzyme-linked reagent.

Another experiment deals with T2, Human ACVR2A (human, UniProt P27037 20-135, limits assumed).
T2 construct: also called activin receptor, type II A
T2 sequence (P27037 20-135 limits assumed): as the sequence (P27038 20-135 limits assumed) above, with R20K, I73V counted along it
As to the kind of experiment: ELISA. How it is done:
as §1

Experimental findings from patent US20210380703A1 (RIGEL PHARMACEUTICALS, published 2021) are described below.
Note: test concentration or dose not given here.

B1: 365_H06 (antibody, V domains shown)
VH: EVQLLESGGGLVQPGGSLRLSCAASGFTFSSYGMNWVRQAPGKGLEWVSGINYNSGYTGYADSVKGRFTISRDNSKNTLYLQMNSLRAEDTAVYYCARSANWHDTALDYWGQGTLVTVSS
VL: DIQMTQSPSSLSASVGDRVTITCRASQSISSYVNWYQQKPGKAPKLLIYAATSRASGVPSRFSGSGSGTDFTLTISSLQPEDFATYYCQQSYSTPLTFGGGTKVEIK
notes: VH/VL only
On to B1, for which the optical density in the experiment with Goat anti-Human Kappa came to 3.44 OD; in the experiment with Mouse ACVR2A, 2.46 OD; in the experiment with Human ACVR2A it was 2.24 OD.

B2: 365_H11 (antibody, V domains shown)
VH: EVQLLESGGGLVQPGGSLRLSCAASGFTFSSYSMNWVRQAPGKGLEWVSGINYNSGYTGYADSVKGRFTISRDNSKNTLYLQMNSLRAEDTAVYYCARSANWHDTALDYWGQGTLVTVSS
VL: DIQMTQSPSSLSASVGDRVTITCRASQSILTYLNWYQQKPGKAPKLLIYAATSRASGVPSRFSGSGSGTDFTLTISSLQPEDFATYYCQQSYDSPLTFGGGTKVEIK
notes: VH/VL only
Regarding B2, the optical density is 3.61 OD in the experiment with Goat anti-Human Kappa, 3.35 OD with Mouse ACVR2A and 3.24 OD in the experiment with Human ACVR2A.

B3: 366_B10 (antibody, V domains shown)
VH: EVQLLESGGGLVQPGGSLRLSCAASGFTFSSYGMNWVRQAPGKGLEWVSGINYNSGYTSYADSVKGRFTISRDNSKNTLYLQMNSLRAEDTAVYYCARSANWHDTALDYWGQGTLVTVSS
VL: DIQMTQSPSSLSASVGDRVTITCRASQSIISYLNWYQQKPGKAPKLLIYAATSRASGVPSRFSGSGSGTDFTLTISSLQPEDFATYYCQQSYDNPLTFGGGTKVEIK
notes: VH/VL only
Consider B3, for which the values for the optical density in the experiment with Goat anti-Human Kappa, with Mouse ACVR2A and with Human ACVR2A were 3.06 OD, 2.44 OD and 2.33 OD, respectively.

B4: 366_B12 (antibody, V domains shown)
VH: EVQLLESGGGLVQPGGSLRLSCAASGFTFSSYSMNWVRQAPGKGLEWVAGINYNSGYKGYADSVKGRFTISRDNSKNTLYLQMNSLRAEDTAVYYCARSANWHDTALDYWGQGTLVTVSS
VL: DIQMTQSPSSLSASVGDRVTITCRASQSILTYVNWYQQKPGKAPKLLIYAATSRASGVPSRFSGSGSGTDFTLTISSLQPEDFATYYCQQSYDNPLTFGGGTKVEIK
notes: VH/VL only
For B4, the optical density amounted to 3.44 OD with Goat anti-Human Kappa, 2.99 OD with Mouse ACVR2A and 3.24 OD with Human ACVR2A.

B5: 365_H10 (antibody, V domains shown)
VH: EVQLLESGGGLVQPGGSLRLSCAASGFTFDSYGMNWVRQAPGKGLEWVAGINYNSGYKSYADSVKGRFTISRDNSKNTLYLQMNSLRAEDTAVYYCARSANWHDTHLDYWGQGTLVTVSS
VL: DIQMTQSPSSLSASVGDRVTITCRASQSIVTYVNWYQQKPGKAPKLVIYAATSLASGVPSRFSGSGSGTDFTLTISSLQPEDFATYYCQQSYNTPLTFGGGTKVEIK
notes: VH/VL only
With B5, the optical density with Goat anti-Human Kappa is 3.51 OD; with Mouse ACVR2A it was 2.82 OD; in the experiment with Human ACVR2A, 2.68 OD.

B6: 366_B08 (antibody, V domains shown)
VH: EVQLLESGGGLVQPGGSLRLSCAASGFTFDSYGMNWVRQAPGKGLEWVSNINYNGGYKGYADSVKGRFTISRDNSKNTLYLQMNSLRAEDTAVYYCARSANWHDTHLDYWGQGTLVTVSS
VL: DIQMTQSPSSLSASVGDRVTITCRASQSIVSYLNWYQQKPGKAPKLLIYAATSRHSGVPSRFSGSGSGTDFTLTISSLQPEDFATYYCQQSYDNPLTFGGGTKVEIK
notes: VH/VL only
For the molecule B6, the optical density with Goat anti-Human Kappa was determined as 3.05 OD; with Mouse ACVR2A, 2.38 OD; in the experiment with Human ACVR2A, 2.15 OD.

B7: 365_H12 (antibody, V domains shown)
VH: EVQLLESGGGLVQPGGSLRLSCAASGFTFSSYSMNWVRQAPGKGLEWVSNINYNGGYKSYADSVKGRFTISRDNSKNTLYLQMNSLRAEDTAVYYCARSANWHDTHLDYWGQGTLVTVSS
VL: DIQMTQSPSSLSASVGDRVTITCRASQSIITYVNWYQQKPGKAPKLLIYAATSRASGVPSRFSGSGSGTDFTLTISSLQPEDFATYYCQQSYSTPLTFGGGTKVEIK
notes: VH/VL only
For the molecule B7, the figures for the optical density with Goat anti-Human Kappa, in the experiment with Mouse ACVR2A and in the experiment with Human ACVR2A were 3.78 OD, 2.91 OD and 2.97 OD, respectively.
